These results are taken from PMC11392403.

The target in the experiment is recombinant Fasciola hepatica enolase (rFhENO) (Fasciola hepatica) (UniProt Q27655). Put plainly: SEC; Superdex 75 10/300 GL, 0.4 mL/min, 100 μg rFhENO injected; markers carbonic anhydrase 29 kDa, BSA 66 kDa, alcohol dehydrogenase 150 kDa; dimer to monomers.

In the case of “recombinant Fasciola hepatica enolase (rFhENO) (from UniProt Q27655 1-431) (enzyme)”, the percent of the protein eluting in the homodimeric form came out at 86.5% and the stoichiometry N was found to be 2.
